Reference: the supplement of paper PMC10724198
± gives the standard deviation of the averaged measurements.

system: Saccharomyces cerevisiae; assay: protein stability index of tFT-peptide fusion (C-terminal peptide) (PSI (0-1 scale)); higher = more stable (slower turnover); settings: genetic background: wild type; temperature: 30 C
Protocol: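 Multiplexed protein stability (MPS) profiling in S. cerevisiae. Random 12-aa peptides (tFT-X12 library) are fused to the C-terminus of a sfGFP-mCherry tandem fluorescent timer, after mCherry and a GGGS linker. Cells are FACS-sorted into 8 mCherry/sfGFP bins and deep-sequenced. The protein stability index (PSI) is the read-weighted bin average, scaled from 0 (unstable) to 1 (stable). Only peptides with >10 reads are reported; cells were grown at 30 °C in SC-His with glucose.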
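Further: PSI is a weighted mean of sequencing reads over stability bins, variants kept only with over 10 reads, mCherry proximal and sfGFP distal, peptide attached via GGGS linker.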

Point of comparison: KNSLIKTKESRK, protein stability index 0.6947 ± 0.0021. Against it:
- WKGEMRDDGGRR — within error, 0.687 ± 0.041
- PPFSLVTGLPCP — within error, 0.71 ± 0.048
- GKPTPRRPEKDG — lower, 0.6096 ± 0.0051
- PLPLPPPSLSPL — higher, 0.73279 ± 8.7e-05
- CPPPPPPPPSRC — within error, 0.704 ± 0.036
- PSPRSFLSIRFL — lower, 0.581 ± 0.013
- RKNQNAWMPALQ — within error, 0.702 ± 0.1
- GVWWRRVVFGRR — within error, 0.696 ± 0.075
- GLRSKLEKVQRG — within error, 0.726 ± 0.047
- GFFNNRLASSLR — within error, 0.734 ± 0.098
- RKSIGTAYRMPR — within error, 0.755 ± 0.081
- SVSLPPSLPFLL — higher, 0.764 ± 0.03
- WRTPVCSPFLLG — within error, 0.691 ± 0.0053
- PSPPASSPPLPL — lower, 0.665 ± 0.02
- GENVVPGLHTQV — within error, 0.675 ± 0.064
- PSPFPPPLPPHL — higher, 0.767 ± 0.064
- APPPAAPALSPR — within error, 0.718 ± 0.096
- GGASRLARMGWW — lower, 0.642 ± 0.034
- RVSAPPSFHGSF — higher, 0.722 ± 0.014
- CTFSGSHGSFPS — within error, 0.717 ± 0.028
- TREITDAKVGNE — higher, 0.7145 ± 0.0015
- ERWGGSGGGCAA — within error, 0.67 ± 0.051
- SYRPPYTQPTDL — within error, 0.658 ± 0.064
- GGLGGWAECGRW — within error, 0.748 ± 0.11
- KEKKNNRQRKER — lower, 0.642 ± 0.016
- EAGAKEWGAKQT — within error, 0.7006 ± 0.007
- LLLSPAFFSCFL — within error, 0.638 ± 0.095
- LWGYFRTAASFV — within error, 0.645 ± 0.095
- KYPRPNSYFVPI — within error, 0.717 ± 0.023
- SLLFPPSPPPPA — lower, 0.673 ± 0.011
- LIRIHPNGPKFM — within error, 0.708 ± 0.083
- PPFLLPCFPCFS — lower, 0.494 ± 0.07
- NDRLDRRDWWEG — the same, 0.695 ± 0.022
- PPSPPPVRPHPP — lower, 0.587 ± 0.068
- IPPFLVSLPFLP — within error, 0.702 ± 0.018
- QIHGQKNFKTLD — within error, 0.704 ± 0.078
- FPPVVSSLPPPS — within error, 0.686 ± 0.14
- WGAAGRAGTERH — within error, 0.682 ± 0.029
- IEGKDSQEREGR — within error, 0.706 ± 0.075
- SLGWVRDRICSD — within error, 0.75 ± 0.17
- LMFPLPLRSFPF — within error, 0.6931 ± 0.0014
- PPLPPSSMPPSH — within error, 0.685 ± 0.035
- TTLFLPAGYACR — within error, 0.707 ± 0.037
- GRKSESEEEQRR — within error, 0.677 ± 0.052
- VEGINSQERLGV — within error, 0.724 ± 0.07
- IPSCSTPAPHLP — within error, 0.677 ± 0.022
- PPPDPPLSPPPP — within error, 0.676 ± 0.087
- WGWGGGRDGCGV — within error, 0.643 ± 0.1
- GEILTLYLLPRL — within error, 0.705 ± 0.052
- RMINRLEKKHTK — within error, 0.771 ± 0.098
- GGQRPKRQQLTT — within error, 0.7022 ± 0.0058
- IIIEYNINRKKI — lower, 0.611 ± 0.05
- GGGREGNGRERS — lower, 0.594 ± 0.053
- YRLCEARVQSDN — within error, 0.685 ± 0.022
- PFLFPLLSPFSV — within error, 0.681 ± 0.019
- FFVSHLLRFAIK — lower, 0.555 ± 0.0089
- CMASCTRSYYRL — lower, 0.661 ± 0.005
- CCGSSPLPPFTS — within error, 0.724 ± 0.055
- VGGRGLVWVWGG — lower, 0.631 ± 0.059
- IESFFLFSFSFP — within error, 0.762 ± 0.31
- YIIEGKRKYNRI — within error, 0.682 ± 0.029
- FSNSSASPPSLS — within error, 0.664 ± 0.068
- SFPPPFLISLSP — within error, 0.676 ± 0.042
- RTSCEQYERGLM — lower, 0.673 ± 0.012
- PPYPPGLPSLPP — within error, 0.689 ± 0.043
- VIQCIGANGAII — within error, 0.645 ± 0.052
- WVVSRGPFAVGP — within error, 0.68 ± 0.021
- HKENTKEKKKRE — within error, 0.693 ± 0.043
- WACGYLGSTILS — within error, 0.643 ± 0.067
- YLLYSDSLCFVT — lower, 0.659 ± 0.03
- PPPPRLPARLAP — within error, 0.77 ± 0.16
- CQWLIVEWEEKG — within error, 0.662 ± 0.083
- KKKKEEKKKSKK — lower, 0.644 ± 0.041
- VKSQRISVMIKK — within error, 0.689 ± 0.022
- RPAVPSPRPPPP — within error, 0.674 ± 0.029
- RGEVQPRRDPGA — lower, 0.662 ± 0.0095
- TWVVPSASWLVF — lower, 0.598 ± 0.009
- TVPGTARGQRPP — lower, 0.629 ± 0.03
- FRDPTVLCCLHI — lower, 0.515 ± 0.055
- WLFLCWCFFCCL — within error, 0.597 ± 0.12
